{
  "source": "paper PMC3535368",
  "about": "“Heme orientation modulates histidine dissociation and ligand binding kinetics in the hexacoordinated human neuroglobin” (Journal of Biological Inorganic Chemistry, 2012)",
  "molecules": {"B1": {"name": "WTox (A isomer): oxidized wild-type human Ngb (Cys46-Cys55 disulfide bridge), A heme conformer (protein, UniProt Q9NPG2 1-151, looked up)", "Neuroglobin": "MERPEPELIRQSWRAVSRSPLEHGTVLFARLFALEPDLLPLFQYNCRQFSSPEDCLSSPEFLDHIRKVMLVIDAAVTNVEDLSSLEEYLASLGRKHRAVGVKLSSFSTVGESLLYMLEKCLGPAFTPATRAAWSQLYGAVVQAMSRGWDGE", "modifications": "oxidized, heme A isomer"}, "B2": {"name": "WTred (A isomer): DTT-reduced wild-type human Ngb, A heme conformer (protein, UniProt Q9NPG2 1-151, looked up)", "Neuroglobin": "B1 Neuroglobin", "modifications": "DTT-reduced, heme A conformer"}, "B3": {"name": "human Ngb: human neuroglobin, hexacoordinated hemoprotein of brain and retina (protein, UniProt Q9NPG2 1-151, looked up)", "Neuroglobin": "B1 Neuroglobin"}, "B4": {"name": "C120Sox (A isomer) (protein, UniProt Q9NPG2 1-151, looked up, variant C120S)", "Neuroglobin": "B1 Neuroglobin with C120S", "modifications": "oxidized, heme A isomer"}, "B5": {"name": "WTred (B isomer): DTT-reduced wild-type human Ngb, B heme conformer (protein, UniProt Q9NPG2 1-151, looked up)", "Neuroglobin": "B1 Neuroglobin", "modifications": "DTT-reduced, heme B conformer"}, "B6": {"name": "WTox (B isomer): oxidized wild-type human Ngb (Cys46-Cys55 disulfide bridge), B heme conformer (protein, UniProt Q9NPG2 1-151, looked up)", "Neuroglobin": "B1 Neuroglobin", "modifications": "oxidized, heme B isomer"}, "B7": {"name": "WTred: wild-type human Ngb with reduced cysteines, both heme isomers (protein, UniProt Q9NPG2 1-151, looked up)", "Neuroglobin": "B1 Neuroglobin", "modifications": "reduced cysteines", "notes": "wild-type human Ngb with reduced cysteines, both heme isomers"}, "B8": {"name": "C120Sred (A isomer) (protein, UniProt Q9NPG2 1-151, looked up, variant C120S)", "Neuroglobin": "B1 Neuroglobin with C120S", "modifications": "reduced, heme A isomer"}, "B9": {"name": "C120Sred (B isomer) (protein, UniProt Q9NPG2 1-151, looked up, variant C120S)", "Neuroglobin": "B1 Neuroglobin with C120S", "modifications": "reduced, heme B isomer"}, "B10": {"name": "C120Sox (B isomer) (protein, UniProt Q9NPG2 1-151, looked up, variant C120S)", "Neuroglobin": "B1 Neuroglobin with C120S", "modifications": "oxidized, heme B isomer"}},
  "key": {"[1]": {"conditions": "for fraction of isomer remaining unbound (free) at equilibrium: end of reaction; for k off, off-rate of cyanide: estimated from K d and k obs; for Kd: read-out: K d, dissociation constant of cyanide, calculated from concentrations of free and bound species at equilibrium"}, "[2]": {"set-up": "method as in PMID 15020597", "conditions": "UV-visible study; cited from earlier work"}, "[3]": {"assay": "Air reoxidation of the disulfide bridge followed by 1H NMR, cyanide omitted", "assay_type": "physicochemical, human", "conditions": "no reducing agent, increase of WTox peak intensity"}, "[4]": {"conditions": "500 μM KCN, 100 μM protein, 20 mM Tris-HCl pH 7.4, 298 K"}, "[5]": {"conditions": "calculated from T and 500 μM cyanide, 1/T = k obs[CN−]"}},
  "note": "Numbering of substitutions follows the chain as printed. Read-outs that look alike come from different tables or passages of the source.",
  "data": [
    {"molecule": "B1", "values": [
      {"measurement": "T, time constant of cyanide binding (exponential fit of heme methyl peak intensities)", "setting": "[1]; [4]", "value": 19, "unit": "min"},
      {"measurement": "k obs, second-order association rate constant for cyanide binding", "setting": "[1]; [5]", "value": 1.75, "unit": "M⁻¹ s⁻¹"},
      {"measurement": "time after KCN injection at which CN− binding reaction was completed", "setting": "[1]; judged from constant peak intensities, 500 μM KCN", "value": 60, "unit": "min"}
    ]},
    {"molecule": "B2", "values": [
      {"measurement": "T, time constant of cyanide binding (exponential fit of heme methyl peak intensities)", "setting": "[1]; [4]", "value": 127, "unit": "min"},
      {"measurement": "k obs, second-order association rate constant for cyanide binding", "setting": "[1]; [5]", "value": 0.26, "unit": "M⁻¹ s⁻¹"},
      {"measurement": "fraction of isomer remaining unbound (free) at equilibrium", "setting": "[1]; 500 μM KCN, 100 μM protein", "value": "about 42%"},
      {"measurement": "k off, off-rate of cyanide", "setting": "[1]", "value": "3.9e-05", "unit": "s⁻¹"},
      {"measurement": "Kd", "setting": "[1]", "value": 153, "unit": "µM"}
    ]},
    {"molecule": "B3", "values": [
      {"measurement": "fast cyanide binding rate (biphasic)", "setting": "[2]", "value": 1.65, "unit": "M⁻¹ s⁻¹"},
      {"measurement": "slow cyanide binding rate (biphasic)", "setting": "[2]", "value": 0.37, "unit": "M⁻¹ s⁻¹"},
      {"measurement": "k on,CN, rate of cyanide binding to the pentacoordinate state", "setting": "[1]; estimated here", "value": 6700, "unit": "M⁻¹ s⁻¹"}
    ]},
    {"molecule": "B4", "values": [
      {"measurement": "k obs, second-order association rate constant for cyanide binding", "setting": "[1]", "value": 1.85, "unit": "M⁻¹ s⁻¹"},
      {"measurement": "T, time constant of cyanide binding (exponential fit of heme methyl peak intensities)", "setting": "[1]; pH 7.4", "value": 18, "unit": "min"}
    ]},
    {"molecule": "B5", "values": [
      {"measurement": "T, time constant of cyanide binding (exponential fit of heme methyl peak intensities)", "setting": "[1]; [4]", "value": 265, "unit": "min"},
      {"measurement": "k obs, second-order association rate constant for cyanide binding", "setting": "[1]; [5]", "value": 0.12, "unit": "M⁻¹ s⁻¹"},
      {"measurement": "fraction of isomer remaining unbound (free) at equilibrium", "setting": "[1]; 500 μM KCN, 100 μM protein", "value": "~24", "unit": "%"},
      {"measurement": "k off, off-rate of cyanide", "setting": "[1]", "value": "3.9e-05", "unit": "s⁻¹"},
      {"measurement": "Kd", "setting": "[1]", "value": 316, "unit": "µM"}
    ]},
    {"molecule": "B6", "values": [
      {"measurement": "time after which CN− binding reaction was hardly finished", "setting": "[1]; 500 μM KCN", "value": "~5", "unit": "h"},
      {"measurement": "T, time constant of cyanide binding (exponential fit of heme methyl peak intensities)", "setting": "[1]; [4]", "value": 97, "unit": "min"},
      {"measurement": "k obs, second-order association rate constant for cyanide binding", "setting": "[1]; [5]", "value": 0.34, "unit": "M⁻¹ s⁻¹"}
    ]},
    {"molecule": "B7", "values": [
      {"measurement": "rate (time) of air reoxidation of the disulfide bridge", "setting": "[3]", "value": "about 60 h"}
    ]},
    {"molecule": "B8", "values": [
      {"measurement": "k obs, second-order association rate constant for cyanide binding", "setting": "[1]", "value": 0.24, "unit": "M⁻¹ s⁻¹"},
      {"measurement": "T, time constant of cyanide binding (exponential fit of heme methyl peak intensities)", "setting": "[1]; pH 7.4", "value": 138, "unit": "min"}
    ]},
    {"molecule": "B9", "values": [
      {"measurement": "k obs, second-order association rate constant for cyanide binding", "setting": "[1]", "value": 0.13, "unit": "M⁻¹ s⁻¹"},
      {"measurement": "T, time constant of cyanide binding (exponential fit of heme methyl peak intensities)", "setting": "[1]; pH 7.4", "value": 255, "unit": "min"}
    ]},
    {"molecule": "B10", "values": [
      {"measurement": "k obs, second-order association rate constant for cyanide binding", "setting": "[1]", "value": 0.28, "unit": "M⁻¹ s⁻¹"},
      {"measurement": "T, time constant of cyanide binding (exponential fit of heme methyl peak intensities)", "setting": "[1]; pH 7.4", "value": 119, "unit": "min"}
    ]}
  ]
}
